Test results reported in article PMC10953581, “SHMT2 Mediates Small‐Molecule‐Induced Alleviation of Alzheimer Pathology Via the 5′UTR‐dependent ADAM10 Translation Initiation”.

T1: human SUMO-SHMT2 (Homo sapiens, UniProt P34897 1-504)
T1 sequence: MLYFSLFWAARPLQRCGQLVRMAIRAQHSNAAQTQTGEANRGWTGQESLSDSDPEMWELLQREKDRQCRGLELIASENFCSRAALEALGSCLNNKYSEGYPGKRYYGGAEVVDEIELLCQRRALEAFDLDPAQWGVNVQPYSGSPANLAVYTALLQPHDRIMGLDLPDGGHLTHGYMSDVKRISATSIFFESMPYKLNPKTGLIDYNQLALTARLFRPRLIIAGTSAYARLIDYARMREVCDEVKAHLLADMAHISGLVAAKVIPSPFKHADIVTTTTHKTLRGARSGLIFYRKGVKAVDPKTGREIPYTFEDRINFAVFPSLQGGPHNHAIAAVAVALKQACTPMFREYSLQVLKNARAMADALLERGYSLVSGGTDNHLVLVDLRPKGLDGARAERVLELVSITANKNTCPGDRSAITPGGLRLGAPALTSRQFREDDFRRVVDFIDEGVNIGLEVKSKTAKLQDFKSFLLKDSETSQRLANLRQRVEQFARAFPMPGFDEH

T2: murine SUMO-SHMT2 (Mus musculus, UniProt Q9CZN7 1-504)
T2 sequence: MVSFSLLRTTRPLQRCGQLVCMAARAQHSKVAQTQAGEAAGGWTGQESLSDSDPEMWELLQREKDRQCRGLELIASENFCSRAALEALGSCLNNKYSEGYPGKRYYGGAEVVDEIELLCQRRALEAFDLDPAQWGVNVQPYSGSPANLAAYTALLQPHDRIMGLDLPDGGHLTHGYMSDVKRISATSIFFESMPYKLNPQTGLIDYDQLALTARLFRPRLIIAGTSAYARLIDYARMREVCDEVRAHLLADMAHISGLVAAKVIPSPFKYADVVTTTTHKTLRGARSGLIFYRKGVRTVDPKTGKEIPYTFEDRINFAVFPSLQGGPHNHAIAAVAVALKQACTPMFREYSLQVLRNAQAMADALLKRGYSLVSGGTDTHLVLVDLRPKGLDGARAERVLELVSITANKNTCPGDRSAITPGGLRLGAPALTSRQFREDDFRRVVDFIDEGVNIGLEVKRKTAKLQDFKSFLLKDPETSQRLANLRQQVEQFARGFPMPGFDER


What follows are binders tested against T1, human SUMO-SHMT2 (assay: EMSA; RNA EMSA (LightShift kit): 10 pmol biotin-RNA, 6 ug protein, 1X EMSA binding buffer, 5% glycerol, 0.1 mg/mL tRNA, 20 uL, 30 min, room temperature; salt and pH not stated). Details: protein: recombinant; tags: SUMO; chain copies: 4; label: 5' biotin.

| Binder | binding result |
| --- | --- |
| GGAAACGAACGAGGGGGAGGGA (ssRNA) [223-244] | binds |
| GAGAGAAUAUUUAACGAGCAAGGGA (ssRNA) [MUT176-200] | no binding |
| GAGAGAAGAGGGAACGAGCAAGGGA (ssRNA) [176-200] | binds |
| UGAGUUUCGAAGGAGGGGGG (ssRNA) [156-175] | binds |
| UGAGUUUCGAAGUAUUUGGG (ssRNA) [MUT156-175] | no binding |
| GGACGGGUAGGGGCUUUAUGUA (ssRNA) [MUT69-90] | no binding |
| AGGAAAGCGGGGAAAGGAGGAA (ssRNA) [201-222] | binds |
| GGAAACGAACUAUUUGUAUUUA (ssRNA) [MUT223-244] | no binding |
| AGUAAAUCGGGUAAAUGAGGAA (ssRNA) [MUT201-222] | no binding |
| GGACGGGUAGGGGCGGGAGGUA (ssRNA) [69-90] | binds |

Each binder was assayed against T2, murine SUMO-SHMT2 in the same assay as above. Details: protein: recombinant; tags: SUMO; label: 5' biotin.

| Binder | binding result |
| --- | --- |
| GAAGAGGCCGAGGGGGAGGGAGGGCCCU (ssRNA) [mouse 30-57] | binds |
| GUUUUGGCGGAGCAGGGCGCGCGGCUGGG (ssRNA) [mouse 58-86] | no binding |
| GAGGGCAGGGAAGCGGGGAAGGGAGGAAG (ssRNA) [mouse 1-29] | binds |
